Type in all cases: cell-based
The subject of test [1] is human NK cells. Nature of the test: NK cell proliferation activity. The following applies: for cell proliferation activity on NK cells: compared with IL-2 (P) and 8His-IL-2 as controls. The procedure: A separation of NK cells from human PBMC was performed by a method below. Frozen human PBMC was thawed according to the method described in Example 13, and CD56^+ NK cells were separated using NK Cell Isolation Kit human (manufactured by Miltenyi Biotech). The separated cells were washed three times with a culture medium (1500 rpm, room temperature, 5 minutes) and then subjected to a proliferation assay below.
FIGS. 2A to 2H show results obtained using a proliferation medium, and FIGS. 2I to 2K show results obtained using the X-vivo 10 SFM.

Test [2] relates to human Tregs. Nature of the test: Treg proliferation activity. To be noted: for Treg proliferation activity: with respect to IL-2 (P) or 8His-IL-2 (P) as control. The procedure:
After human frozen peripheral blood mononuclear cells (PBMCs) (manufactured by AllCells) were melted in a warm bath at 37° C., the cells were suspended in 10 mL of a culture medium [X-vivo15 SFM (manufactured by Lonza) 1000 mL, heat-inactivated human AB serum (manufactured by SIGMA) 150 mL], and a T-75 flask for adhesion (manufactured by greiner bio-one) was seeded the cells, and allowed to stand for 24 hours to culture the cells (37° C., under conditions of 95 vol % air/5 vol % CO2). A total amount of cells was collected, and CD4^+ T cells were enriched using EasySep Human CD4^+ Tcells Enrichment kit (manufactured by […] Technologies).
After staining (on ice, 30 minutes) with Anti-human CD4-Alexa 488 (manufactured by Biolegend), anti-human CD25-PE (manufactured by BD Pharmingen), and anti-human CD127-BV421 (manufactured by Biolegend), a CD4^+ CD25^+ CD127^low fraction (Treg) was separated using a cell sorter SH800 (manufactured by SONY Biotechnology).
The separated Treg and CD3/CD28 Dynabeads (manufactured by Thermo Fischer […]) washed three times with the culture medium were mixed with each other, and suspended in a culture medium at 3.4×10^4 cells/mL, respectively, and a 96-well U bottom plate (manufactured by Corning) was seeded with at 150 μL/well.
After culturing for 5 to 7 days, 50 μL of a total volume of each well was transferred to a 96-well white plate. A Celltiter-Glo solution was added at 50 μL/well, and the mixture was allowed to stand at room temperature for 10 minutes, and then a luminescence value was measured using a luminometer (manufactured by TURNER BIOSYSTEMS).

The subject of test [3] is human Tresp. Nature of the test: Inhibitory activity of IL-2-stimulated Tregs on Tresp proliferation. The following applies: Tregs cultured 7 days with IL-2 (final concentration 65 nM); compared with unstimulated Treg.
Procedure: All cells were separated from each other by the same lot of frozen human PBMC.
Seven days before the assay, Tregs were separated from the frozen human PBMCs as described in Example 13.
The cell preparation on the day of test was performed as follows. Tregs were separated from the frozen human PBMC by the method described in Example 13 and used as unstimulated Tregs. After CD3^+CD25^− T cells were separated from the frozen human PBMC, by using EasySep Human T Cell Enrichment Kit (manufactured by [sequence] Technologies) and EasySep Human Pan-CD25 Positive Selection and Depletion Kit (manufactured by [sequence] Technologies), the cells were labeled by reacting Celltrace violet (manufactured by Thermo Fischer [sequence]) diluted to 40 μmol/L with a 10% FBS-containing RPMI1640 medium, at room temperature for 5 minutes.
The obtained cells were used as responder T cells (Tresp). HLA-DR+ cells were separated from frozen human PBMCs using Anti-HLA-DR MicroBeads, human (manufactured by Miltenyi Biotec). The obtained cells were used as Antigen presenting cell (APC).
After the obtained cells were suspended in X-vivo 15 SFM to which an anti-CD3 antibody OKT3 (manufactured by Biolegend) was added to obtain a final concentration of 0.5 μg/mL, a 96-well V-bottom plate (manufactured by Sumitomo Bakelite) was seeded with Tresp at 2×10^4 cells/well (50 μL), APC at 1×10^5 cells/well (50 μL), and Tregs at 1.6×10^2 to 5×10^3 cells/well (50 μL) (Tresp:Treg=4:1 to 128:1), and the cells were cultured at 37° C. under 5% CO2 for 4 days.
Thereafter, the cells were stained with anti-human CD4-APC (manufactured by BD Pharmingen) and anti-human CD8-PE (manufactured by BD Pharmingen) (at room temperature for 15 minutes), and then various fluorescent intensities were measured by flow cytometer FACS Canto II (manufactured by BD Biosciences).
The obtained data was exported as FCS file, and then analyzed using data analysis software FLowJo (TreeStar, version 7.6.5) for a division index value, which is an average number of cell divisions in CD4^+ Tresp or CD8^+ Tresp.

“E15C-11: glycosylated IL-2 variant; E15 to C-disialo; C125S”: in test [1], the “cell proliferation activity on NK cells” value was “greatly reduced”. Also, the Treg proliferation activity entry in test [2] is listed as “maintained”.

For the molecule “H16C-2: glycosylated IL-2 variant; H16 to C-lactose”, the “cell proliferation activity on NK cells” value in test [1] is reported as “greatly reduced”. In addition, the “proliferation of Tresp in the presence of IL-2-stimulated Tregs” value (shortened to “proliferation of Tresp”) in test [3] is “inhibited”. In addition, in test [2], the Treg proliferation activity entry is reported as “maintained”.

As for “L19C-9: glycosylated IL-2 variant; L19 to C-asialo”, the “cell proliferation activity on NK cells” value in test [1] is reported as “greatly reduced”. For the same molecule, the “proliferation of Tresp” value in test [3] was “inhibited”. The Treg proliferation activity entry in test [2] was “maintained”.

As to “N88C-2: glycosylated IL-2 variant; N88 to C-lactose”, the “cell proliferation activity on NK cells” value in test [1] is “greatly reduced”. Moreover, in test [3], the “proliferation of Tresp” value is “inhibited”. The Treg proliferation activity result in test [2] is given as “maintained”.

B1: F78C-V40(IAc)/L12C-11: Cys-PEGylated and glycosylated IL-2 variant; F78 to C-V40(IAc); L12 to C-disialo; C125S (protein, UniProt P60568 21-153, looked up, variant L12C F78C C125S)
Interleukin-2: APTSSSTKKTQCQLEHLLLDLQMILNGINNYKNPKLTRMLTFKFYMPKKATELKHLQCLEEELKPLEEVLNLAQSKNCHLRPRDLISNINVIVLELKGSETTFMCEYADETATIVEFLNRWITFSQSIISTLT
modifications: PEG on C78; disialo glycan on C12
notes: Cys-PEGylated and glycosylated IL-2 variant; F78 to C-V40(IAc); L12 to C-disialo; C125S
As to B1, in test [1], the “cell proliferation activity on NK cells” value was “greatly reduced”. Besides, the “IL-2-dependent cell proliferation rate” value in test [2] (Treg, IL-2 concentration of 65 nmol/L) is given as ≥ 80%. The Treg proliferation activity result in test [2] is given as “lowered”.

B2: T3C-Y50(IAc)/E15C-11: Cys-PEGylated and glycosylated IL-2 variant; T3 to C-Y50(IAc); E15 to C-disialo; C125S (protein, UniProt P60568 21-153, looked up, variant T3C E15C C125S)
Interleukin-2: APCSSSTKKTQLQLCHLLLDLQMILNGINNYKNPKLTRMLTFKFYMPKKATELKHLQCLEEELKPLEEVLNLAQSKNFHLRPRDLISNINVIVLELKGSETTFMCEYADETATIVEFLNRWITFSQSIISTLT
modifications: PEG on C3; disialo glycan on C15
notes: Cys-PEGylated and glycosylated IL-2 variant; T3 to C-Y50(IAc); E15 to C-disialo; C125S
For the molecule B2, the “cell proliferation activity on NK cells” value in test [1] is reported as “greatly reduced”. Moreover, the Treg proliferation activity result in test [2] was “maintained”.

B3: T3C-V80(Mal)/E15C-11: Cys-PEGylated and glycosylated IL-2 variant; T3 to C-V80(Mal); E15 to C-disialo; C125S (protein, UniProt P60568 21-153, looked up, variant T3C E15C C125S)
Interleukin-2: APCSSSTKKTQLQLCHLLLDLQMILNGINNYKNPKLTRMLTFKFYMPKKATELKHLQCLEEELKPLEEVLNLAQSKNFHLRPRDLISNINVIVLELKGSETTFMCEYADETATIVEFLNRWITFSQSIISTLT
modifications: maleimide PEG on C3; disialo glycan on C15
notes: Cys-PEGylated and glycosylated IL-2 variant; T3 to C-V80(Mal); E15 to C-disialo; C125S
As for B3, the “cell proliferation activity on NK cells” value in test [1] is “greatly reduced”. Also, the Treg proliferation activity entry in test [2] is “lowered”.

B4: T3C-Li20(IAc)/L12C-11/V91C-11: Cys-PEGylated and glycosylated IL-2 variant; T3 to C-Li20(IAc); L12, V91 to C-disialo; C125S (protein, UniProt P60568 21-153, looked up, variant T3C L12C V91C C125S)
Interleukin-2: APCSSSTKKTQCQLEHLLLDLQMILNGINNYKNPKLTRMLTFKFYMPKKATELKHLQCLEEELKPLEEVLNLAQSKNFHLRPRDLISNINCIVLELKGSETTFMCEYADETATIVEFLNRWITFSQSIISTLT
modifications: PEG on C3; disialo glycans
notes: Cys-PEGylated and glycosylated IL-2 variant; T3 to C-Li20(IAc); L12, V91 to C-disialo; C125S
Consider B4, for which, in test [1], the “cell proliferation activity on NK cells” value is “greatly reduced”. Moreover, the Treg proliferation activity result in test [2] was “lowered”.

B5: V91C-11/V115C-11: glycosylated IL-2 variant; V91, V115 to C-disialo; C125S (protein, UniProt P60568 21-153, looked up, variant V91C V115C C125S)
Interleukin-2: APTSSSTKKTQLQLEHLLLDLQMILNGINNYKNPKLTRMLTFKFYMPKKATELKHLQCLEEELKPLEEVLNLAQSKNFHLRPRDLISNINCIVLELKGSETTFMCEYADETATICEFLNRWITFSQSIISTLT
modifications: disialo glycans on cysteines
notes: glycosylated IL-2 variant; V91, V115 to C-disialo; C125S
As to B5, in test [1], the “cell proliferation activity on NK cells” value is given as “greatly reduced”. Also, the Treg proliferation activity result in test [2] is reported as “maintained”.

B6: A1C-11/T3C-11/S5C-11/L12C-11/V91C-11: glycosylated IL-2 variant; A1, T3, S5, L12, V91 to C-disialo; C125S (protein, UniProt P60568 21-153, looked up, variant A1C T3C S5C L12C V91C C125S)
Interleukin-2: CPCSCSTKKTQCQLEHLLLDLQMILNGINNYKNPKLTRMLTFKFYMPKKATELKHLQCLEEELKPLEEVLNLAQSKNFHLRPRDLISNINCIVLELKGSETTFMCEYADETATIVEFLNRWITFSQSIISTLT
modifications: disialo glycans on cysteines
notes: glycosylated IL-2 variant; A1, T3, S5, L12, V91 to C-disialo; C125S
Turning to B6, the “IL-2-dependent cell proliferation rate” value in test [1] (NK cells, X-vivo 10 SFM, IL-2 concentration of 65 nmol/L) is on record as ≤ 20%. Moreover, the “cell proliferation activity on NK cells” value in test [1] was “greatly reduced”. Also, in test [2], the Treg proliferation activity entry was “lowered”.

Values taken from patent publication US12280118B2 (Kyowa Kirin Co., Ltd., priority 2017, dated 2025).
